The assay has as its target SARS-CoV-2 RBD (wild type) (SARS-CoV-2, UniProt P0DTC2 319-539). Kind of assay: ELISA on coated RBD. In general terms: ELISA stands for enzyme-linked immunosorbent assay.

Among the data in patent publication US20220195015A1 (published 2022) are EC50 values, retold here.

Broadly, the EC50 is the midpoint of the concentration-response curve. Read a low EC50 as greater potency.

B1: C077 (antibody, V domains shown)
VH: QVQLVQSGAEVKKPGASVKVSCKASGYTFTSYAMHWVRQAPGQRLEWMGWINTDNGNTKYSQKFQGRVTITRDTSASTAYMELSSLRSEDTAVYYCAREGALTNWFDPWGQGTLVTVSS
VL: SYELTQPPSVSVAPGQTARIPCGGNNIGSKSVHWYQQKPGQAPVLVVYDDSDRPSGIPERFSGSNSGNTATLTISRVEAGDEADYYCQVWDSSSDLHVVFGGGTKLTVL
B1 returned an EC50 of 45.9 ng/mL.

B2: C213 (antibody, V domains shown)
VH: EVQLVESGGGLVKPGGSLRLSCAASGFTFSSYSMNWVRQAPGKGLEWVSSISSSSSYIYYADSVKGRFTISRDNAKNSLYLQMNSLRAEDTAVYYCARVQVGARGWVDYWGQGTLVTVSS
VL: NFMLTQPHSVSESPGKTVTISCTRSSGSIASNYVQWYQQRPGSAPTTVIYEDNERPSGVPDRFSGSIDSSSNSASLTISGLKTEDEADYYCQSYDRINWVFGGGTKLTVL
Consider B2, for which it took 2.02 ng/mL to reach a half-maximal effect (EC50).

B3: C217 (antibody, V domains shown)
VH: EVQLVESGGGLVKPGGSLRLSCAASGFTFSSYSMNWVRQAPGKGLEWVSFISSRSSYIYYADSVKGRFTISRDNAKNSLYLQMNSLRAEDTAVYYCARVQVGARGWVDYWGQGTLVTVSS
VL: NFMLTQPHSVSESPGKTVTISCTRSSGSIASNYVQWYQQRPGSAPTTVIYEDNQRPSGVPDRFSGSIDSSSNSASLTISGLKTEDEADYYCQSYDSINWVFGGGTKLTVL
With B3, the EC50 came to 2.28 ng/mL.

B4: C096 (antibody, V domains shown)
VH: EVQLVESGGGLVKPGGSLRLSCVASGFTFRNAWMNWVRQAPGKGLEWVGRIKANSDGGTIDYAEPVQGRFTISREDSRNSLYLQMNSLKTEDTAVYYCTTGPQYDDFGHSYIVDSWGPGTLVTVSS
VL: DIVMTQSPLSLPVTLGEPASISCRSSQSLLHSNGFHFLEWYLQKPGQSPQLLIYVGSNRASGVPDRFSGSGSGTDFTLKISRVEAEDVGVYYCMQTLQTPLTFGGGTKVEIK
B4: a half-maximal effect (EC50) was put at 5.18 ng/mL.

B5: C521 (antibody, V domains shown)
VH: EVQLVESGGGLVRPGGSLTLSCVASGFTVGSNFMSWVRQAPGKGLEWVSLIYNSGGTHYADSVKGRFTISRDRSKNTLYLQMNSLRAEDTAIYYCANHGYYYYMDVWGKGTTVTVS
VL: QSALTQPASVSGSPGQSITISCTGTGSDIGAYNYVSWHQHHPGKAPKLIIYDVSNRPSGVSNRFSGSKSGNTASLTISGLQAEDEADYYCTSYTNTTTPWVFGGGTKVTVL
As for B5, the midpoint of the response, the EC50, lay at 6.9 ng/mL.

B6: C522 (antibody, V domains shown)
VH: EVQLVESGGGLIQPGGSLRLSCAASEFIVSRNYMSWVRQAPGKGLEWVSVIYSGGSTFYADSVKGRFTISRDESKNTLYLQMNSLRAEDTAIYYCARDRGGGILDYWGQGTLVTVS
VL: DIQMTQSPSSLSASVGDRVTITCQASQDINIFLNWYQQKPGKAPKLLIYDASSLETGVPSRFSGSGSGTDFTFTISSLQPEDFATYYCQQYGNLPKYTFGQGTKLEIK
With B6, the EC50 is 0.93 ng/mL.

B7: C564 (antibody, V domains shown)
VH: EVQLLESGGGLVQPGTSLRLSCAASGFTFSSYAMSWVRQAPGKGLEWVSAISSSGGSTYYADSVKGRFTISRDNSKNTLYLHMNSLRAEDTAVYYCATERIAVAGTRMYNWFDPWGQGTLVTVSS
VL: DIQMTQSPSSLSASVGDRVTLTCRASQSISSYLNWYQQKPGKAPNLLIYAASSLQSGVPSRFSGSGSGTDFTLTISSLQPEDFATYYCQQSYSAPPWTFGQGTKVEIK
Turning to B7, the response was half-maximal at 14.6 ng/mL (EC50).

B8: C563 (antibody, V domains shown)
VH: EVQLVESGGGLVKPGGSLRLSCAASGFPFTNAWMSWVRQAPGKGLEWVGHIKDYTDGGTTDYAAPVKGKFTISRDDSKNTLYLHMNSLKTEDTAVYYCSTVGSYYYDSRGPTSDAFDIWGQGTLVTVSS
VL: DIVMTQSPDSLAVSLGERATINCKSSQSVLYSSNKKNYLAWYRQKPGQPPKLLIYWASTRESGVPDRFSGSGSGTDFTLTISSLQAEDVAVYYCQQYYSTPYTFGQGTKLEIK
B8 gave an EC50 of 1.19 ng/mL.

B9: C095 (antibody, V domains shown)
VH: VQLVEAGGGVVQPGRSLRLSCAASGLAFSIYGMHWVRQAPGKGLEWVAIVAQDGSKKYYADSVKGRFTISRDNSKNTLYLEMNSLRTEDTAVYYCVKEGRPSDTVVVVAFDYWGQGSLVTVSS
VL: DIQLTQSPSSLSASVGDRVTITCRASQSISNYLNWYQQKPGKAPKVIIYAASSLQSGVPSRFSGSGSGTDFTLTISSLQPEDFATYYCQQSHSIPRTFGQGTKVEIK
Regarding B9, the EC50 was determined as 1.1 ng/mL.

B10: C035 (antibody, V domains shown)
VH: EVQLVESGGGLVQPGGSLRLSCAASGFIFSSYWMTWVRQAPGKGLEWVASIKYNGNERNYVDSVKGRFTISRDNARNSLFLQLNNLGAEDTAVYYCARQPESTIWYYFDYWGQGTLVTVSS
VL: SYELTQPPSVSVSPGQTARVTCSGHALPDQYTYWYQQRPGRAPVLVIYVNNQRPSGIPDRFSATTSGTTVTLTISGVQAEDEADYYCQSADSSGSYVVFGGGTKLTVL
Regarding B10, it took 15.2 ng/mL to reach a half-maximal effect (EC50).

B11: C094 (antibody, V domains shown)
VH: QVQLQESGPGLVKPSETLSLTCNVSGVSISTDYWSWIRQPPGKGLEWIGYIYYSGNTKDYNPSLKSRVTISVDTSKNQFSLMLSSVTAADTAVYYCARHYDILTSLSWFDPWGQGTLVTVSS
VL: QSVLTQPPSVSAAPGQKVTISCSITNSNLGNIYVSWYQQLPGTAPKLLIYGNNKRPSGIPDRFSGSKSGTSATLGITGLQTGDEAHYYCGTWDSSLSANWVFGGGTKLTVL
B11 had a concentration for a half-maximal effect (EC50) of 1.67 ng/mL.

B12: C073 (antibody, V domains shown)
VH: QLQLQESGPGLVKPSETLSLTCTVSGASIPSSTSYWGWIRQPPGKGLEWIGSIYYTGSTYYNPSLKSRVTISVDTSKNHFSLILSSVTAADTAVYYCARRSITLAGRDCLDFWGQGTLVTVSS
VL: DIQLTQSPSSLSASVGDRLTITCRASQSITTSLNWYQQKPGKAPKLLIYAASSLQSGVPSRFSGSGSGTDFTLAISSLQPEDFATYYCQQSYIPLLTFGGGTKVDIK
B12: the midpoint of the response, the EC50, lay at 20.6 ng/mL.

B13: C080 (antibody, V domains shown)
VH: EVQLVQSGAEVKKPGESLNISCKASGYSFTIYWIAWVRQLPGKGLEWMGIIYPGDSDTRYSPSFQGQVTISADKSISTAYLQWRSLKASDSAVYYCARGVAVDWYFDLWGRGTLVTVSS
VL: QSVLTQPPSVSGAPGQRVTISCAGSSSNIGAGFDVYWYQQLPGTAPKLLIYGNNNRPSGVPDRFSGSKSGTSASLAITGLQAEDEADYYCQSSGSVLSDLYVFGTGTKVTVL
The molecule B13 showed an EC50 of 1.97 ng/mL.

B14: C091 (antibody, V domains shown)
VH: QVQLVQSGAEVKKPGSSVKVSCKASGGTFSSYTISWVRQAPGQGLEWMGRIIPILGIANYAQKFQGRVTITADKSTSTAYMELSSLRSEDTAVYYCARDSGYSGYGSTYYMDVWGKGTTVTVSS
VL: QSVLTQPPSVSGAPGQRVTISCTGSSSNIGAGYDVHWYQQLPGTAPKLLIYGNSNRPSGVPDRFSGSKSGTSASLAITGLQAEDEADYYCQSYDSSLSGSVFGTVTKVTVL
B14: the EC50 stood at 89.5 ng/mL.

B15: C092 (antibody, V domains shown)
VH: QVQLVQSGAEVKKPGSSVKVSCKASGGSFTNHFISWVRQAPGQGLEWMGRIIPILGTANYAQNFQGRVMMTADKSTSTAYMELSSLRSEDTAVYYCARDSGYSGYGSTYYMDVWGKGTTVTVSS
VL: QSVLTQPPSVSGAPGQRVTISCTGSNSNIGAGYDVHWYQQLPGAAPKLLIYGNNNRPSGVPDRFSGSKSDTSASLAITGLQVEDEADYYCQSYDSSLSDSVFGSGTKVTVL
B15 registered a concentration giving a half-maximal response (EC50) of 7.07 ng/mL.
